Test results taken from patent US20230266317A1 (published 2023).

Key:
Experiment in all cases: cell-based or functional assay
[1] = molecular target: UspA2H of M. catarrhalis AERIS isolate 193, on bacteria (Moraxella catarrhalis)
[2] = molecular target: T1, UspA2 of M. catarrhalis strain ATCC 25238 (SEQ ID NO: 1), on bacteria (Moraxella catarrhalis)
T1 chain: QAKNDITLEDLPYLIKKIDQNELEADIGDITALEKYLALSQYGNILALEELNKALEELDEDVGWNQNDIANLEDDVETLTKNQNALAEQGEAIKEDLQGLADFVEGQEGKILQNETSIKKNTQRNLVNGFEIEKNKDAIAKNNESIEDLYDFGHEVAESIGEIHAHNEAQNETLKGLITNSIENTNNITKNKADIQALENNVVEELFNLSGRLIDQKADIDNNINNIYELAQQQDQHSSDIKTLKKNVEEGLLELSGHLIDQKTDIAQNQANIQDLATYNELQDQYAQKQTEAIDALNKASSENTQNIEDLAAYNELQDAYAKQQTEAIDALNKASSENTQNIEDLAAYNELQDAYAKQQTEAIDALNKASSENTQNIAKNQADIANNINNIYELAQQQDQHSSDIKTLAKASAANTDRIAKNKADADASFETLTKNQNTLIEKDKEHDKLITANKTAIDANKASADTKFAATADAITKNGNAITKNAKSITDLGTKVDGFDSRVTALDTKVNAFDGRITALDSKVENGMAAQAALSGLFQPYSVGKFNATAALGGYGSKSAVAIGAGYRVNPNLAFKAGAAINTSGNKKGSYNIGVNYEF

[3] = molecular target: UspA2H of M. catarrhalis AERIS isolate 415, on bacteria (Moraxella catarrhalis)
[4] = molecular target: UspA2H of M. catarrhalis AERIS isolate 240, on bacteria (Moraxella catarrhalis)
[5] = molecular target: UspA2 of M. catarrhalis Denmark isolate BBH18 (wild type), on bacteria (Moraxella catarrhalis)
[6] = molecular target: UspA2H of M. catarrhalis AERIS isolate 268, on bacteria (Moraxella catarrhalis)
[7] = molecular target: T2, UspA2 of M. catarrhalis Dutch isolate F10, on bacteria (Moraxella catarrhalis)
T2 chain: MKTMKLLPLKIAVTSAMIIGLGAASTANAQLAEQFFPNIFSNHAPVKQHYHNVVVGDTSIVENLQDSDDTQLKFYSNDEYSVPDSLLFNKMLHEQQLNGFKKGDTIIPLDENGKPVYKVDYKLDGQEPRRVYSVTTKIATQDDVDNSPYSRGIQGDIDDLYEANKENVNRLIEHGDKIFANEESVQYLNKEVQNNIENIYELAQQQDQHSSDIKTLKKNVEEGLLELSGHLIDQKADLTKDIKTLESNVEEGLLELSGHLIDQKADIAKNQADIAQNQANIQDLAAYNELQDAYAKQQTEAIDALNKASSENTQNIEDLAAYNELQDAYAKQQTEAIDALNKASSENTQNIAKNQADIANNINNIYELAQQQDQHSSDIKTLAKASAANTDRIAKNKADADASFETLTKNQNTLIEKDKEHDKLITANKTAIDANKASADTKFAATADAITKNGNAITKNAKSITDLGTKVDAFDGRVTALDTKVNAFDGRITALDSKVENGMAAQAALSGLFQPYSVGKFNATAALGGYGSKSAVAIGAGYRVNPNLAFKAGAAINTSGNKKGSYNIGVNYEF

[8] = molecular target: UspA1 of M. catarrhalis strain ATCC 43617, on bacteria (Moraxella catarrhalis)
[9] = molecular target: UspA2H of M. catarrhalis AERIS isolate 296, on bacteria (Moraxella catarrhalis)

B1: anti-UspA2 monoclonal antibody FHUSPA2/10 (antibody, V domains shown)
VH: EVQLQQSGTVLARPGASVKMSCKASGYSFTSYWMHWVKQRPGQGLEWIGAIYPGNSDTSYNQKFKGKAKLTAVTSASTAYMELSNLTNEDSAVYSCTLLRFLDAYWGQGTLVTVSA
VL: QIVLSQSPAILSASPGEKVTMTCRASSSVSYMHWYQQKPGSSPKPWIYATSNLASGVPARFSGSGSGTSYSLTISRVEAEDAATYYCQQWSSNPPTFGGGSKLEIK
bactericidal activity (mid-point titer) [1]: > 640000 mid-point titer (reciprocal dilution inducing 50% of killing) | bactericidal activity (mid-point titer) [2]: 1.88e+06 mid-point titer (reciprocal dilution inducing 50% of killing) | bactericidal activity (mid-point titer) [3]: 256000 mid-point titer (reciprocal dilution inducing 50% of killing) | bactericidal activity (mid-point titer) [4]: > 25600 mid-point titer (reciprocal dilution inducing 50% of killing) | bactericidal activity (mid-point titer) [5]: 386000 mid-point titer (reciprocal dilution inducing 50% of killing) | bactericidal activity (mid-point titer) [6]: > 384000 mid-point titer (reciprocal dilution inducing 50% of killing) | bactericidal activity (mid-point titer) [7]: 528000 mid-point titer (reciprocal dilution inducing 50% of killing) | bactericidal activity (mid-point titer) [8]: < 100 mid-point titer (reciprocal dilution inducing 50% of killing) | bactericidal activity (mid-point titer) [9]: 114000 mid-point titer (reciprocal dilution inducing 50% of killing)
